The supplement of paper PMC7125110
± gives the standard error. Fewer inactive variants are shown than the library holds.

B1: glmS ribozyme (parent)
chain: AUAAAAGCGCCAGAACUACAGAAAUGUAGUUGACGAGGAGGAGGUUUAUCGAAUUUUCGGCGGAUGCCUCCAAA

Assays:
Details in all cases: with glucosamine-6-phosphate
[1] = variants of: B1; assay: self-cleavage kobs at 40 uM GlcN6P; higher = faster cleavage; RNA array
Method in brief: (§1)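 Tracking of barcoded ribozyme variants used a hybridised Cy3 probe at 37 °C, after in situ transcription by E. coli RNA polymerase on sequenced MiSeq chips. The flowed solution held 40 μM to 10 mM glucosamine-6-phosphate in HEPES/KCl/Mg(OAc)2 buffer, and imaging ran over ~14 h. kobs was taken from exponential decay fits of normalised per-tile medians, and kcat and KM from weighted Michaelis–Menten fits.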

[2] = variants of: B1; assay: self-cleavage kobs at 2500 uM GlcN6P; higher = faster cleavage; RNA array
Method in brief: as §1

[3] = variants of: B1; assay: self-cleavage kobs at 10000 uM GlcN6P; higher = faster cleavage; RNA array
Method in brief: as §1

[4] = variants of: B1; assay: self-cleavage kobs at 160 uM GlcN6P; higher = faster cleavage; RNA array
Method in brief: as §1

[5] = variants of: B1; assay: self-cleavage kobs at 640 uM GlcN6P; higher = faster cleavage; RNA array
Method in brief: as §1

Row | Variant | self-cleavage kobs at 40 uM GlcN6P [1] [s⁻¹] | self-cleavage kobs at 2500 uM GlcN6P [2] [s⁻¹] | self-cleavage kobs at 10000 uM GlcN6P [3] [s⁻¹] | self-cleavage kobs at 160 uM GlcN6P [4] [s⁻¹] | self-cleavage kobs at 640 uM GlcN6P [5] [s⁻¹]
1 | G43A U57A | < 1e-05 | < 1e-05 | < 1e-05 |  | 
2 | G43U G44A A48G C58A U69A C71G | < 1e-05 | < 1e-05 | < 1e-05 | < 1e-05 | 
3 | U45A C67A | 0.000364 ± 5.5e-05 | 0.00568 ± 0.0022 | 0.00719 ± 0.0014 |  | 
4 | A42G U46C A48U | < 1e-05 |  |  |  | 
5 | G44U G60C | < 1e-05 | < 1e-05 | < 1e-05 | < 1e-05 | < 1e-05
6 | G41C G51A A52U C67A | < 1e-05 |  | < 1e-05 |  | 
7 | A42U G51U | < 1e-05 |  | < 1e-05 | < 1e-05 | < 1e-05
8 | A42C U47G | < 1e-05 | < 1e-05 |  |  | 
9 | G41U G43U | < 1e-05 | < 1e-05 | < 1e-05 |  | < 1e-05
10 | G44C U46G | < 1e-05 | < 1e-05 |  | < 1e-05 | < 1e-05
11 | G41C G63A A64G | < 1e-05 |  | < 1e-05 |  | 
12 | G41C A48U | < 1e-05 |  |  | < 1e-05 | < 1e-05
13 | U46G U56A | 5.1e-05 ± 7.3e-06 |  | 0.00224 ± 0.00042 |  | 0.000601 ± 0.00017
14 | G44C U55G C70U | < 1e-05 |  |  |  | < 1e-05
15 | A42G G62A | < 1e-05 | < 1e-05 | < 1e-05 | < 1e-05 | < 1e-05
16 | A42C C61A | < 1e-05 | < 1e-05 | < 1e-05 | < 1e-05 | 
17 | A42C C61G | < 1e-05 | < 1e-05 |  | < 1e-05 | < 1e-05
18 | G43U G51A U65G G66A | < 1e-05 |  |  |  | 
19 | U46G U65A C70U | 8.31e-05 ± 1.9e-05 |  | 0.00117 ± 0.00024 |  | 
20 | G41U G60C | < 1e-05 | < 1e-05 | < 1e-05 | < 1e-05 | < 1e-05
21 | G44U A53C C58U C71U | < 1e-05 | < 1e-05 | < 1e-05 | < 1e-05 | < 1e-05

Row | Variant | self-cleavage kobs at 40 uM GlcN6P [1] [s⁻¹] | self-cleavage kobs at 2500 uM GlcN6P [2] [s⁻¹] | self-cleavage kobs at 10000 uM GlcN6P [3] [s⁻¹] | self-cleavage kobs at 160 uM GlcN6P [4] [s⁻¹] | self-cleavage kobs at 640 uM GlcN6P [5] [s⁻¹]
22 | G41U U45C U54G C67U C71G | < 1e-05 |  |  | < 1e-05 | < 1e-05
23 | G44A C71G | < 1e-05 |  | < 1e-05 | < 1e-05 | < 1e-05
24 | G44U C70A | < 1e-05 | < 1e-05 | < 1e-05 | < 1e-05 | < 1e-05
25 | G43A C50G | < 1e-05 |  | < 1e-05 | < 1e-05 | < 1e-05
26 | G41U U65C | < 1e-05 |  | 2.23e-05 ± 7.2e-06 | < 1e-05 | 
27 | U45A A53G U55G | 0.00113 ± 0.00021 |  | 0.0551 ± 0.018 |  | 
28 | G44A G51A C67U | < 1e-05 |  |  |  | 
29 | G44C U65G | < 1e-05 |  |  | < 1e-05 | < 1e-05
30 | A42G U45C | 5.93e-05 ± 2.9e-05 |  |  |  | 
31 | G44U U57A U69A | < 1e-05 |  | < 1e-05 | < 1e-05 | < 1e-05
32 | A42C A53G | < 1e-05 |  |  | < 1e-05 | 
33 | G41C G44U U47G | < 1e-05 |  |  |  | 
34 | G41C U49G A53G | < 1e-05 |  |  |  | 
35 | G43C C58A | < 1e-05 | < 1e-05 | < 1e-05 | < 1e-05 | < 1e-05
36 | U45C C67A C70G | < 1e-05 | < 1e-05 |  |  | 
37 | A42G G60A U65G | < 1e-05 | < 1e-05 |  |  | 
38 | U46C A64U | < 1e-05 |  | 4.69e-05 ± 1.5e-05 |  | 
39 | U46C A64G | 0.000191 ± 2.5e-05 |  | 0.00537 ± 0.0008 |  | 
40 | G44C U49G | < 1e-05 | < 1e-05 | < 1e-05 |  | 
41 | A42U G60U | < 1e-05 |  |  | < 1e-05 | < 1e-05
42 | A42G U47A | 0.000848 ± 0.00018 | 0.0269 ± 0.0085 | 0.00752 ± 0.0028 | 0.00279 ± 0.0011 | 0.00967 ± 0.0013

Row | Variant | self-cleavage kobs at 40 uM GlcN6P [1] [s⁻¹] | self-cleavage kobs at 2500 uM GlcN6P [2] [s⁻¹] | self-cleavage kobs at 10000 uM GlcN6P [3] [s⁻¹] | self-cleavage kobs at 160 uM GlcN6P [4] [s⁻¹] | self-cleavage kobs at 640 uM GlcN6P [5] [s⁻¹]
43 | G44U G51U C67G | < 1e-05 | < 1e-05 | < 1e-05 |  | 
44 | G43C U56A C61G | < 1e-05 |  | < 1e-05 |  | 
45 | G43C A52U | < 1e-05 | < 1e-05 | < 1e-05 | < 1e-05 | < 1e-05
46 | G44C C70G | < 1e-05 | < 1e-05 | < 1e-05 | < 1e-05 | < 1e-05
47 | G44C C67A | 0.000178 ± 2.3e-05 | 0.00486 ± 0.0014 | 0.00668 ± 0.0019 | 0.00032 ± 9e-05 | 0.00196 ± 0.00037
48 | U46G G63C | < 1e-05 | < 1e-05 | < 1e-05 | < 1e-05 | < 1e-05
49 | U46A G59U | < 1e-05 |  | < 1e-05 | < 1e-05 | < 1e-05
50 | U46C C50G | < 1e-05 |  |  |  | < 1e-05
51 | A42G G63C | < 1e-05 | < 1e-05 | < 1e-05 | < 1e-05 | < 1e-05
52 | A42C G44C | < 1e-05 |  | < 1e-05 | < 1e-05 | < 1e-05
53 | G43A C70G | < 1e-05 | < 1e-05 | < 1e-05 | < 1e-05 | < 1e-05
54 | G41U C68A | < 1e-05 | < 1e-05 | < 1e-05 | < 1e-05 | < 1e-05
55 | A42G A48U G62U C71U | < 1e-05 | < 1e-05 | < 1e-05 |  | < 1e-05
56 | U47A A53U | 0.000547 ± 6.1e-05 | 0.00324 ± 0.00072 | 0.0124 ± 0.0022 | 0.00098 ± 0.0002 | 0.00349 ± 0.00062
57 | U45C A53G C67G C68A | 3.17e-05 ± 1.3e-05 |  | 8.22e-05 ± 1.3e-05 |  | 
58 | G43A G51A | < 1e-05 | < 1e-05 | < 1e-05 | < 1e-05 | 
59 | G41U U46G C67U | < 1e-05 |  |  | < 1e-05 | < 1e-05
60 | A42U G44A U65G | < 1e-05 | < 1e-05 | < 1e-05 | < 1e-05 | < 1e-05
61 | U46A C58U | < 1e-05 |  |  | < 1e-05 | < 1e-05
62 | G44A G62A | < 1e-05 | < 1e-05 | < 1e-05 | < 1e-05 | < 1e-05
63 | A42G U55G | 0.00175 ± 0.00035 |  | 0.0243 ± 0.0042 |  | 

Row | Variant | self-cleavage kobs at 40 uM GlcN6P [1] [s⁻¹] | self-cleavage kobs at 2500 uM GlcN6P [2] [s⁻¹] | self-cleavage kobs at 10000 uM GlcN6P [3] [s⁻¹] | self-cleavage kobs at 160 uM GlcN6P [4] [s⁻¹] | self-cleavage kobs at 640 uM GlcN6P [5] [s⁻¹]
64 | G43A G44A G51A C58A | < 1e-05 |  | < 1e-05 |  | 
65 | G41C U45G | < 1e-05 |  | 9.46e-05 ± 1.7e-05 |  | 
66 | U45A G60A | < 1e-05 |  |  | < 1e-05 | 
67 | G43U C68A | 0.00235 ± 0.00036 | 0.0175 ± 0.005 | 0.0761 ± 0.024 | 0.00333 ± 0.00054 | 0.0194 ± 0.0032
68 | A42G U49C | < 1e-05 | < 1e-05 | < 1e-05 | < 1e-05 | < 1e-05
69 | G41C G44C | < 1e-05 | < 1e-05 | < 1e-05 | < 1e-05 | < 1e-05
70 | G41C C67U | < 1e-05 | < 1e-05 | < 1e-05 | < 1e-05 | < 1e-05
71 | U45A G51A | < 1e-05 |  |  | < 1e-05 | 
72 | U46G U54C C67U | 9.53e-05 ± 1.8e-05 |  | 0.00207 ± 0.00047 |  | 
73 | A42C C61A G66U | < 1e-05 | < 1e-05 |  |  | 
74 | G41U G62U | < 1e-05 | < 1e-05 | < 1e-05 | < 1e-05 | < 1e-05
75 | G44A G63A | < 1e-05 | < 1e-05 |  | < 1e-05 | < 1e-05
76 | G43C A53C U56C | < 1e-05 | < 1e-05 | < 1e-05 | < 1e-05 | 
77 | G44A C58A C70U | < 1e-05 |  |  | < 1e-05 | < 1e-05
78 | G41C U69A | < 1e-05 |  |  | < 1e-05 | < 1e-05
79 | G44A U65G | < 1e-05 |  |  | < 1e-05 | 
80 | G44A A52G | < 1e-05 |  |  | < 1e-05 | 
81 | U47A A53G U54G | 0.000659 ± 0.00016 |  | 0.0222 ± 0.0081 |  | 
82 | G43U U46A U57C C70A | < 1e-05 |  | < 1e-05 |  | < 1e-05
